This data set deals with the molecule itself. In words: SEC-MALS. On the technique in general: SEC sorts molecules by how far they enter the pores of the column.

Experimental findings from paper PMC3977576 (Biochemistry, 2014) are described below.

B1: IKK2EE(11–669) (domain or fragment)
chain: TCGAWEMKERLGTGGFGNVIRWHNQETGEQIAIKQCRQELSPRNRERWCLEIQIMRRLTHPNVVAARDVPEGMQNLAPNDLPLLAMEYCQGGDLRKYLNQFENCCGLREGAILTLLSDIASALRYLHENRIIHRDLKPENIVLQQGEQRLIHKIIDLGYAKELDQGELCTEFVGTLQYLAPELLEQQKYTVTVDYWSFGTLAFECITGFRPFLPNWQPVQWHSKVRQKSEVDIVVSEDLNGTVKFSSSLPYPNNLNSVLAERLEKWLQLMLMWHPRQRGTDPTYGPNGCFKALDDILNLKLVHILNMVTGTIHTYPVTEDESLQSLKARIQQDTGIPEEDQELLQEAGLALIPDKPATQCISDGKLNEGHTLDMDLVFLFDNSKITYETQISPRPQPESVSCILQEPKRNLAFFQLRKVWGQVWHSIQTLKEDCNRLQQGQRAAMMNLLRNNSCLSKMKNSMASMSQQLKAKLDFFKTSIQIDLEKYSEQTEFGITSDKLLLAWREMEQAVELCGRENEVKLLVERMMALQTDIVDLQRSPMGRKQGGTLDDLEEQARELYRRLREKPRDQRTEGDSQEMVRLLLQAIQSFEKKVRVIYTQLSKTVVCKQKALELLPKVEEVVSLMNEDEKTVVRLQEKRQKELWNLLKIACSKVRGPV
In the case of B1, the “stoichiometry N” value was 2.

The stoichiometry N is a count of units in the complex or per binding partner.
